Earlier results in patent US11911476B2, “Process for preparing a drug delivery composition” (PK MED SAS, priority 2017, dated 2024).

Conditions: temperature at which half of the drug loses its activity

Row | Substance | denaturation temperature
1 | Adalimumab | about 75 °C
2 | lysozyme | 76 °C
